{"source": "patent US20200247855A1", "about": "“THERAPY AND DIAGNOSTICS” (OXFORD UNIVERSITY INNOVATION LIMITED, priority 2017, published 2020)", "molecules": {"B1": {"name": "AMA-01: previously described tick CKBP, Amblyomma maculatum (protein, listed as Amblyomma maculatum)", "chain": "ECEESDTSESTECSTEDYSNRIRDNETCFIGALNTTGHPVPVGCTLDCGNSTRYLPNGTECIDLTQQASDVMQSDVPYYCPIGLCANGICKRSGLELNCWHDMPPPVSTDTAIENPTTSISSSAKL"}, "B2": {"name": "ACA-02: previously described tick CKBP, Amblyomma cajennense (protein)", "chain": "GIEGSGNLATSHEMDDCLDDNSTCVIQTLNTTGEPRPVGCVLKCKNSTQHLANGTECLGIPELAGVRMQYNVSYTCAVGLCNAGVCERTGLWIGCWQNEPPPNSTDVTTTAPTTTTASTSSV", "modifications": "Amblyomma cajennense"}, "B3": {"name": "ATR-02: previously described tick CKBP, Amblyomma triste (protein)", "chain": "GNEVSDPPLTDEDCEYYDPSEDNITCSIRSLNTTGRPIPVGCLATCENSTRRLHNGTECLGISDQVANRMQGNVTYTCPVGLCYRGVCQRNGLGIDCWHNTPPPNSTNVTTNASTTPLPTSSRDL", "modifications": "Amblyomma triste"}, "B4": {"name": "IHO-01: previously described tick CKBP, Ixodes holocyclus (protein, listed as Ixodes holocyclus)", "chain": "AFVSSSTEVEIGSTSEHNSNETDEYGYDYNADGLGCPVVGIGGLDNKTWHPNCTNECPNSTKLFLLENGTP"}, "B5": {"name": "IRI-01: previously described tick CKBP, Ixodes ricinus (protein, listed as Ixodes ricinus)", "chain": "GPAPSAKENEKAPLCLPQESLINNRDPNGCNYQLLPYFTEDGMGGGFLAIDCSKSCPEGTHETVVDGNS"}, "B6": {"name": "SEQ ID NO: 83: substituted hybrid with greater extent of P672_RHIPU sequence in Evasin-1 (protein)", "chain": "VCEVSEQEGVGEDNATEDEDYEDFFKPVTCYFANSTVGPLRPPNCTVVCTNNTAWWNDTKSDGGHCFSIGDEGLRRMTANLPYDCPLGQCSNGDCIPKETYEVCYRRNWRDEKN", "modifications": "tick CKBP sequence"}, "B7": {"name": "Evasin-1 peptide encoded by EZ406190.1: Evasin-1 peptide variant K92E encoded by nucleotide sequence EZ406190.1 (protein)", "chain": "EDDEDYGDLGGCPFLVAENKTGYPTIVACKQDCNGTTETAPNGTRCFSIGDEGLRRMTANLPYDCPLGQCSNGDCIPKETYEVCYRRNWRDEKN"}, "B8": {"name": "SEQ ID NO: 82: substituted hybrid with greater extent of P672_RHIPU sequence in Evasin-1 (protein)", "chain": "VCEVSEQEGVGEDNATEDEDYEDFFKPVTCYFANSTVGPLRPPNCTVVCTNNTAWWNDTKSDGGHCYSEYRPEKRTHSREIYNCTIGVCGNGDCIPKETYEVCYRRNWRDEKN", "modifications": "tick CKBP sequence"}, "B9": {"name": "EVA1(P67222-32): hybrid protein: P672 (E22-F32) region swapped into the corresponding segment of EVA1_RHISA (protein)", "chain": "EDDEDYEDFFKPVTCYFLVAENKTGYPTIVACKQDCNGTTETAPNGTRCFSIGDEGLRRMTANLPYDCPLGQCSNGDCIPKETYEVCYRRNWRDKKN", "modifications": "EVA1 containing P672 E22-E32", "notes": "hybrid protein: P672 (E22-F32) region swapped into the corresponding segment of EVA1_RHISA"}}, "note": "“Also recorded” adds a separate entry of the source.", "data": [{"test_system": "chemokines", "experiment": "not given", "conditions": "list of chemokines bound, from the literature [18,20-22]; cited from earlier work", "values": [{"molecule": "B1", "Previously described chemokine binding": "CCL11, CCL24,; also recorded: CCL26, CCL2,; also recorded: CCL8, CCL7"}, {"molecule": "B2", "Previously described chemokine binding": "CCL11, CCL24,; also recorded: CCL26"}, {"molecule": "B3", "Previously described chemokine binding": "CCL11, CCL24,; also recorded: CCL26, CCL2,; also recorded: CCL8, CCL7"}, {"molecule": "B4", "Previously described chemokine binding": "CCL11, CCL24, and CCL26, CCL2, and CCL8"}, {"molecule": "B5", "Previously described chemokine binding": "CCL11, CCL24,; also recorded: CCL26, CCL2,; also recorded: CCL8, CCL7"}]}, {"molecular_target": "T1, CCL8_HUMAN (Homo sapiens, UniProt P80075)", "T1 sequence (P80075 24-99)": "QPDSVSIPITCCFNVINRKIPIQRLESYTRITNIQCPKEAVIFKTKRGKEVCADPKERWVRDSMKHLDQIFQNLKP", "experiment": "Biolayer interferometry (BLI) binding", "conditions": "300 nM or 600 nM CCL8", "protocol": "Table 1. Tick CKBPs described in PCT/GB2017/050563 and [17]. Tick peptide sequences isolated in yeast surface display fluorescent-activated cell sorting (FACS) screens using a labelled chemokine. Identity with Evasin-1, 4 or 3 was calculated using BLAST. Abbreviations: IXORI—Ixodes ricinus, RHISA—Rhipicephalus sanguineus, AMBMA—Amblyomma maculatum, AMBPA—Amblyomma parvum, AMBTR—Amblyomma triste, AMBAM—Amblyomma americanum, AMBCA—Amblyomma cajennense, RHIPU—Rhipicephalus pulchellus. Table 2A-C. Binding characteristics of tick CKBPs previously disclosed (PCT/GB2017/050563 and [17]). All members of the human chemokine family[164] are listed in column 1. Binding to human chemokines was determined for 14 tick CKBPs using biolayer interferometry (BLI) with calculated Kd shown as Molar (Moles/Litre). Binding data for 17 other novel tick CKBPs was assayed using yeast surface display[17,166],with positive binding results shown as “YES”. For biolayer interferometry, His-tagged purified tick CKBP was bound to a Ni-NINTA sensor on an OctetRed® 384 system, and then binding to each chemokine listed (with the exception of CCL25, CCL26, CXCL16, CXCL17, CXCL4L1, XCL2) was assayed in a cross-binding screen at a chemokine concentration of 300 nM as described. For those chemokines showing binding to a tick CKBP in the cross-binding screen, binding assays were repeated using different doses of chemokine. Association, equilibrium and dissociation data were analysed using Octet software to create corresponding fitted curves, and used to calculate Kd. For yeast surface display, (YSD) background fluorescence was controlled for by using either an empty vector or by omitting the chemokine (i.e. using streptavidin-Alexa647 alone). An arbitrary threshold of >3 fold over background mean fluorescence intensity was chosen to describe confirmed re-tests. Where binding was detected data are indicated as “YES”. […] For yeast surface display data, empty cells represent chemokines that were not tested. Binding data published in relation to previously described tick CKBPs (Evasins-1, 4 and 3) is also shown for comparison in each of FIGS. 2A-C, with the relevant data obtained from publications: [20-22,32]. Table 3: Neutralisation of human chemokines by tick CKBPs previously disclosed (PCT/GB2017/050563 and [17]). Neutralising activity was determined using a quantitative THP1 cell migration assay in a 96-well Boyden chamber with chemokine in the bottom chamber as described. Cells migrating through to the bottom chamber at 4 hours were counted using flow cytometry in a 96 well plate format. IC50 for neutralisation was determined at the chemokine EC80 dose as determined using a range of tick CKBP concentrations. Data was analysed using GraphPad Prism to determine IC50, which is shown as Molar (Moles/Litre). Empty cells represent experiments not done. Table 4—Other previously described tick CKBPs. Tick CKBPs that were also described in PCT/GB2017/050563 and Singh et al. are indicated in “Notes”. Table 5.—Novel tick CKBPs of the invention. Table 6. […] The peptide sequence prefix indicates the identity, and suffix indicate the tick species as follows: AMBCA, Amblyomma cajennense and IXORI, Ixodes ricinus. […] Certain tick peptides e.g. P1074_IXORI were recovered from screens performed with more than one chemokine. Individual yeast clones recovered from the library were re-tested using a FACS (fluorescence activated cell sorting), experiment. The binding of the peptide to the chemokine was assayed by measuring the percent (%), of yeast cells expressing the given peptide that exceeded a background threshold set by measuring the fluorescence of the yeast library pool treated with streptavidin-[…] alone. When more than one independent yeast clone was isolated for a given peptide-chemokine combination, the mean percent shift was calculated and reported in column 3. […]", "values": [{"molecule": "B6", "CCL8 binding (bound or not)": "having a CCL8-binding function"}, {"molecule": "B7", "CCL8 binding (bound or not)": "does not bind CCL8"}, {"molecule": "B8", "CCL8 binding (bound or not)": "having a CCL8-binding function"}, {"molecule": "B9", "CCL8 binding (bound or not)": "bound CCL8"}]}]}
